Legend:
[1] = target: urea transporter ApUT from Actinobacillus pleuropneumoniae (Actinobacillus pleuropneumoniae); test: native gel or EMSA
[2] = target: urea transporter ApUT from Actinobacillus pleuropneumoniae (Actinobacillus pleuropneumoniae); test: cross-linking
[3] = target: urea transporter ApUT from Actinobacillus pleuropneumoniae (Actinobacillus pleuropneumoniae); test: electron microscopy of negatively stained 2D crystals

Measured: stoichiometry N

urea transporter ApUT from Actinobacillus pleuropneumoniae (from UniProt A0A2Z6AQW9 1-300) (natural protein)
2: all assays above

Source: article PMC2682783
